Earlier results, collected in publication PMC6200408.

Target: cubilin (Homo sapiens) (UniProt O60494)
Chain of UniProt O60494 (O60494 36-3623): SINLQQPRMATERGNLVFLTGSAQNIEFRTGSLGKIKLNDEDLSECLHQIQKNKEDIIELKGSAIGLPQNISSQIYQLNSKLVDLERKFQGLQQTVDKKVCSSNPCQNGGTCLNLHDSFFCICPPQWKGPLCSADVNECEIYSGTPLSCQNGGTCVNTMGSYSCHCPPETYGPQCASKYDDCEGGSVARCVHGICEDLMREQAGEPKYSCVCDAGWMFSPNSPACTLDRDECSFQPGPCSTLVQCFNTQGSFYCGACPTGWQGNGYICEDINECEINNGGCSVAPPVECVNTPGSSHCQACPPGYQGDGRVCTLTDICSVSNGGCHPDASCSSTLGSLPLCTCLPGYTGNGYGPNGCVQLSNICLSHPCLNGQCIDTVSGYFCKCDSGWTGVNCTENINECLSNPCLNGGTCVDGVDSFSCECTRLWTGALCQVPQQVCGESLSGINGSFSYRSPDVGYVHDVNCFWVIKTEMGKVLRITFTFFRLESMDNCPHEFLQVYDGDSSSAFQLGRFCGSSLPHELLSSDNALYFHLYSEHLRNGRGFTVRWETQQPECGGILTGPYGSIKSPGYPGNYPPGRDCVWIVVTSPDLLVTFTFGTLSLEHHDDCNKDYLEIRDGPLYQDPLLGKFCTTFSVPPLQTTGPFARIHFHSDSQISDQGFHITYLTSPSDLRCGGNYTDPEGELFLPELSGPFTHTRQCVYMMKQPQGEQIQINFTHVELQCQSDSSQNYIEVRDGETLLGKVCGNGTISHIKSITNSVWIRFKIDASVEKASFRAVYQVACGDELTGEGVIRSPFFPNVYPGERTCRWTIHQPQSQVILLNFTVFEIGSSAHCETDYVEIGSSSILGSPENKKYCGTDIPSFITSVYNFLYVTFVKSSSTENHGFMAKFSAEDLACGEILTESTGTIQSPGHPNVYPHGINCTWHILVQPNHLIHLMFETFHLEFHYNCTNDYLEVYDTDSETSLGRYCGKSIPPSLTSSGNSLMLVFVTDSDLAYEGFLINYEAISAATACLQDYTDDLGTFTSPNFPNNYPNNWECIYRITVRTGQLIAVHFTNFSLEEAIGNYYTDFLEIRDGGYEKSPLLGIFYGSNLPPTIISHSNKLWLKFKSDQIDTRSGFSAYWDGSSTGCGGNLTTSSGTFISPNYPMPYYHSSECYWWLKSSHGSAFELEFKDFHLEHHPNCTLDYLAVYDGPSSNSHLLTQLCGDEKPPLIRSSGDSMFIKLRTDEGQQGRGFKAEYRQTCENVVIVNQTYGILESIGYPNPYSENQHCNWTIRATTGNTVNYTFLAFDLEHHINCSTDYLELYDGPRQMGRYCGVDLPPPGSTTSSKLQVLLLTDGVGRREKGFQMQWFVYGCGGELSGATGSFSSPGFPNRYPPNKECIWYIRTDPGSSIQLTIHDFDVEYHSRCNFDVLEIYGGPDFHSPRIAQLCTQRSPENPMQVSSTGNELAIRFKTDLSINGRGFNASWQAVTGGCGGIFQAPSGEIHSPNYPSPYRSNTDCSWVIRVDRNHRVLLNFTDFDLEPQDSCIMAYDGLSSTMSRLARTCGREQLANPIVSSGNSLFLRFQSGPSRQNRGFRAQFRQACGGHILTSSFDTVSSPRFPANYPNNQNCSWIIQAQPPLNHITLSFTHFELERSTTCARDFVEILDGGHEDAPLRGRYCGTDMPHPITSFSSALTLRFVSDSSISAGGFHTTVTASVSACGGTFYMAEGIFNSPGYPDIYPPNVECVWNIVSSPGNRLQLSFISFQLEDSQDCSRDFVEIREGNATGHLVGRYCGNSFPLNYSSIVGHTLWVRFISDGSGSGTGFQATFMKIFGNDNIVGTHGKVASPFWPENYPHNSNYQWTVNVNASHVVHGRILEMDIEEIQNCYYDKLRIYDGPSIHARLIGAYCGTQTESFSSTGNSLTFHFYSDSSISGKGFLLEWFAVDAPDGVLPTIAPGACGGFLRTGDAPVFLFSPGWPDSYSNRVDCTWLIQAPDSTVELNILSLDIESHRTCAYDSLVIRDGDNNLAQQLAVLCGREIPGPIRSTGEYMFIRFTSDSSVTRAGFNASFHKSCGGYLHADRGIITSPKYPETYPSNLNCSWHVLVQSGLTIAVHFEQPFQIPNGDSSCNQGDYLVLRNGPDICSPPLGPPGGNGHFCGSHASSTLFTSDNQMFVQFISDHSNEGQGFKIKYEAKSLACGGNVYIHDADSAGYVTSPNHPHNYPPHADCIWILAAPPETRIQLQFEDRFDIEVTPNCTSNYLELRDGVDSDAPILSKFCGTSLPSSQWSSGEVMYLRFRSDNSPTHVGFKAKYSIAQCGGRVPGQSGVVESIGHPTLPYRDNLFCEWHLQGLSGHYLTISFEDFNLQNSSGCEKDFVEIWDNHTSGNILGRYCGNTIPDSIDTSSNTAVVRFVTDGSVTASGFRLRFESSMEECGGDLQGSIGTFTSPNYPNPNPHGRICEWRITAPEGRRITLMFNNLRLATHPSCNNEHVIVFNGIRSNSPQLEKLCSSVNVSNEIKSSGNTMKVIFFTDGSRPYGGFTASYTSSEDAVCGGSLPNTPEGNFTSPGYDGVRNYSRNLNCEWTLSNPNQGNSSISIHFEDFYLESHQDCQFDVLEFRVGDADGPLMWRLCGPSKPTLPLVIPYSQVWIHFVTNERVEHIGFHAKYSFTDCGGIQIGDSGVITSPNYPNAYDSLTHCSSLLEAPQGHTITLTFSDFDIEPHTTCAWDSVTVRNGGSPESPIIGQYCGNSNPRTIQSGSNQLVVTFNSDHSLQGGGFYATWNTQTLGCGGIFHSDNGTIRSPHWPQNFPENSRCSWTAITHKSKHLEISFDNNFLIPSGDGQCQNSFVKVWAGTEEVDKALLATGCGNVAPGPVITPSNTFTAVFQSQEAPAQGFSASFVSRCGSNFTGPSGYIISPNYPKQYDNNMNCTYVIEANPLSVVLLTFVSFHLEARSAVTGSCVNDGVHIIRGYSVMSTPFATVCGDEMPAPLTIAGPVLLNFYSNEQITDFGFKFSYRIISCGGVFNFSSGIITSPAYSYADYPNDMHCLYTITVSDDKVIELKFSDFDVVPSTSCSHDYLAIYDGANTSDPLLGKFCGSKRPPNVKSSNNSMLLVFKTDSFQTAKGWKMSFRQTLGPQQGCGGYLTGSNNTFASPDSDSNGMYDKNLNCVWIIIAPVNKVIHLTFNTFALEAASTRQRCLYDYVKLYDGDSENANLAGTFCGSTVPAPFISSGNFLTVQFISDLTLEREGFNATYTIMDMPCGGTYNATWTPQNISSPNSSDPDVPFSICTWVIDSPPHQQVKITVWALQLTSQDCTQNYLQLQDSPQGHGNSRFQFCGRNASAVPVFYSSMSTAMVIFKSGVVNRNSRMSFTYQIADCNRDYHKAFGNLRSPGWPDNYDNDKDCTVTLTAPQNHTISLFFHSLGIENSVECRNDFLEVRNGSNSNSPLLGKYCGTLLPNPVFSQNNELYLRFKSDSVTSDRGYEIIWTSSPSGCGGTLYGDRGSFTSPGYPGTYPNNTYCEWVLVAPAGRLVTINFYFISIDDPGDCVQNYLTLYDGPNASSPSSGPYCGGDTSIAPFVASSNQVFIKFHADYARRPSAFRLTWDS

Kd: 0.6 pM
Substance: albumin (from UniProt P02768)
